Test results from US20110097739A1.

Target: HCEC protein fraction
Test: ELISA on the coated protein fraction, lysate treated or not with neuraminidase

- reduction of binding after neuraminidase treatment of the lysate: 50%
Substance: FC5 llama single-domain antibody (sdAb), expressed in fusion with His5 and c-myc tags (VHH)
